Here are results for one molecule from PMC2928020 (The Journal of Cell Biology, 2010).

The assay addresses SNX27 PDZ domain, wild type (residues 39-131 of rat SNX27) (rat, UniProt Q8K4V4 39-131). The assay is described as follows: fluorescence polarisation. (Polarisation of emitted light reports the rotation of a fluorescent probe.)

Where no end group is shown, it is not given here. The star is where a group is joined. FITC = O=C1OC2(c3ccc(O)cc3Oc3cc(O)ccc32)c2ccc(NC(=S)*)cc21

{FITC}-TNDSLL [FITC-labeled peptide corresponding to the C-terminal six residues of the β2AR (TNDSLL)]: binding was characterised by a dissociation constant (Kd) of 17 ± 1.2 µM.

Broadly, the Kd is a measure of binding affinity in units of concentration.
